Laboratory results taken from US20080219970.

T1: Ir-CPI (Ixodes ricinus Contact Phase Inhibitor), recombinant, without its peptide signal
T1 chain: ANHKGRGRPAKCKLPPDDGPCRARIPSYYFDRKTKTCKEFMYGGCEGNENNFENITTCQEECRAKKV

B1: factor XIIa (protein)
chain: IPPWEAPKEHKYKAEEHTVVLTVTGEPCHFPFQYHRQLYHKCTHKGRPGPQPWCATTPNFDQDQRWGYCLEPKKVKDHCSKHSPCQKGGTCVNMPSGPHCLCPQHLTGNHCQKEKCFEPQLLRFFHKNEIWYRTEQAAVARCQCKGPDAHCQRLASQACRTNPCLHGGRCLEVEGHRLCHCPVGYTGAFCDVDTKASCYDGRGLSYRGLARTTLSGAPCQPWASEATYRNVTAEQARNWGLGGHAFCRNPDNDIRPWCFVLNRDRLSWEYCDLAQCQTPTQAAPPTPVSPRLHVPLMPAQPAPPKPQPTTRTPPQSQTPGALPAKREQPPSLTRNGPLSCGQRLRKSLSSMTRVVGGLVALRGAHPYIAALYWGHSFCAGSLIAPCWVLTAAHCLQDRPAPEDLTVVLGQERRNHSCEPCQTLAVRSYRLHEAFSPVSYQHDLALLRLQEDADGSCALLSPYVQPVCLPSGAARPSETTLCQVAGWGHQFEGAEEYASFLQEAQVPFLSLERCSAPDVHGSSILPGMLCAGFLEGGTDACQGDSGGPLVCEDQAAERRLTLQGIISWGSGCGDRNKPGVYTDVAYYLAWIREHTVS
B2: factor Xa (protein)
chain 1: ANSFLEEMKKGHLERECMEETCSYEEAREVFEDSDKTNEFWNKYKDGDQCETSPCQNQGKCKDGLGEYTCTCLEGFEGKNCELFTRKLCSLDNGDCDQFCHEEQNSVVCSCARGYTLADNGKACIPTGPYPCGKQTLER
chain 2: IVGGQECKDGECPWQALLINEENEGFCGGTILSEFYILTAAHCLYQAKRFKVRVGDRNTEQEEGGEAVHEVEVVIKHNRFTKETYDFDIAVLRLKTPITFRMNVAPACLPERDWAESTLMTQKTGIVSGFGRTHEKGRQSTRLKMLEVPYVDRNSCKLSSSFIITQNMFCAGYDTKQEDACQGDSGGPHVTRFKDTYFVTGIVSWGEGCARKGKYGIYTKVTAFLKWIDRSMKTRGLPKAKSHAPEVITSSPLK

Biological target: T1, Ir-CPI (Ixodes ricinus Contact Phase …)

Protein | activation of factor XI into factor XIa by factor XIIa, reconstituted system with purified factors, chromogenic substrate | activation of prekallikrein into kallikrein by factor XIIa, reconstituted system with purified factors, chromogenic substrate | amidolytic activity (chromogenic substrate S-2302), protease preincubated with Ir-CPI at 1:5 molar ratio | amidolytic activity (chromogenic substrate S-2222), protease preincubated with Ir-CPI at 1:5 molar ratio
B1 | Ir-CPI inhibits ... the activation of factor XI into factor XIa by factor XIIa | Ir-CPI inhibits the activation of prekallikrein into kallikrein by factor XIIa | The results obtained did not show any effect of Ir-CPI protein on the amidolytic activity of these factors | –
B2 | – | – | – | The results obtained did not show any effect of Ir-CPI protein on the amidolytic activity of these factors
